From patent US20080311599

Assays:
p72 (D600E) = target: T1, p72 (D600E)
T1 chain: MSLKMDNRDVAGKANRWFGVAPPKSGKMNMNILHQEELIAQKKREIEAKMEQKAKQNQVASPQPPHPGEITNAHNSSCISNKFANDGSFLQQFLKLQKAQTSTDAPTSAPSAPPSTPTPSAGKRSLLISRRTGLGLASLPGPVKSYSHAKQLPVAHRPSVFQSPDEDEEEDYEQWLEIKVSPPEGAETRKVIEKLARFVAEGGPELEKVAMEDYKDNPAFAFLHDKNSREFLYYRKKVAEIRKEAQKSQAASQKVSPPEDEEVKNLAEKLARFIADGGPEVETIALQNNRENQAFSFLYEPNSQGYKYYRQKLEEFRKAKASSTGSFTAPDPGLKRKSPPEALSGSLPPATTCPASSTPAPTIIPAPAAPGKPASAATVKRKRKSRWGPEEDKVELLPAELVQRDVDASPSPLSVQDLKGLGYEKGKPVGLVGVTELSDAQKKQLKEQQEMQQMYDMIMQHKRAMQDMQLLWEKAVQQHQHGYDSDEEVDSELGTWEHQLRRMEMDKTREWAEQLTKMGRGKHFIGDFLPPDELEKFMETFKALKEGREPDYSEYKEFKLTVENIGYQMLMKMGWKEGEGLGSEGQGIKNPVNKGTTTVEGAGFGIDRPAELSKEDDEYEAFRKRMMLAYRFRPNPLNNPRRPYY

p72 = target: T2, p72
T2 chain: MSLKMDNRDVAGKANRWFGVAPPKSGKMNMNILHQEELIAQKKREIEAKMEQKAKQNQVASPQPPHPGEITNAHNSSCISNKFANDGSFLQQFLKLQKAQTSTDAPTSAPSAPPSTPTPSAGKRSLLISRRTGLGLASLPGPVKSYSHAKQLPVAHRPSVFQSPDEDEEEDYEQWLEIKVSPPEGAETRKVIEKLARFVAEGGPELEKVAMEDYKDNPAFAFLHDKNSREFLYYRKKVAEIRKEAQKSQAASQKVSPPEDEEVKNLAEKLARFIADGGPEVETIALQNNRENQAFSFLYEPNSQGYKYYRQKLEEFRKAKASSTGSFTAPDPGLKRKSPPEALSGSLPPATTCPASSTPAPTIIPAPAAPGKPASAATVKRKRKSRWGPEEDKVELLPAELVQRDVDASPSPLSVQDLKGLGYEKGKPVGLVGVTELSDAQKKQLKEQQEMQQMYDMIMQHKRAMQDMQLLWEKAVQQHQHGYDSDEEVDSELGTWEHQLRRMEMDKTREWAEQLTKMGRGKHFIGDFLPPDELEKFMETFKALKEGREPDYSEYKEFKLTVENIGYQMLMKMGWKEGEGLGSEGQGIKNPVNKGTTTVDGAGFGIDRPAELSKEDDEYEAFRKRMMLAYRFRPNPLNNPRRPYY

p72 (1-600) = target: T3, p72 (1-600)
T3 chain: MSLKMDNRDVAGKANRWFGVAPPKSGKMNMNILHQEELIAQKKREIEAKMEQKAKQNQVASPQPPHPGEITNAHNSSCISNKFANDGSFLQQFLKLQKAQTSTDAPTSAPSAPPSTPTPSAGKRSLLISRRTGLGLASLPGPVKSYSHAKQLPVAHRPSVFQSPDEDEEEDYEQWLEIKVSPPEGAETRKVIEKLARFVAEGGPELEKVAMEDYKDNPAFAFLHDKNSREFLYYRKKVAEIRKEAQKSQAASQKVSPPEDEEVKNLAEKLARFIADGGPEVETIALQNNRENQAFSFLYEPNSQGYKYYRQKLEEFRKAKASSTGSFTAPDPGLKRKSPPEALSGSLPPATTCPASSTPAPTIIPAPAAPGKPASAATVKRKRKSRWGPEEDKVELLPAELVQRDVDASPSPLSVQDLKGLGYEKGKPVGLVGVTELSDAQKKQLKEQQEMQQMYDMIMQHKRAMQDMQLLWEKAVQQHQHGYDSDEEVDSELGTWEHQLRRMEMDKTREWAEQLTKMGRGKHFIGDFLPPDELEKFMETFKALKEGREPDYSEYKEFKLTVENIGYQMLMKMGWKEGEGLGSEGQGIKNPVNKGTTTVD

B1: recombinant active caspase-8 (protein)
chain 1: EELCGVMTISDSPREQDSESQTLDKVYQMKSKPRGYCLIINNHNFAKAREKVPKLHSIRDRNGTHLDAGALTTTFEELHFEIKPHHDCTVEQIYEILKIYQLMDHSNMDCFICCILSHGDKGIIYGTDGQEAPIYELTSQFTGLKCPSLAGKPKVFFI
chain 2: MDFSRNLYDIGEQLDSEDLASLKFLSLDYIPQRKQEPIKDALMLFQRLQEKRMLEESNLSFLKELLFRINRLDLLITYLNTRKEEMERELQTPGRAQISAYRFHFCRMSWAEANSQCQTQSVPFWRRVDHLLIRVMLYQISEEVSRSELRSFKFLLQEEISKCKLDDDMNLLDIFIEMEKRVILGEGKLDILKRVCAQINKSLLKIINDYEEFSKGEELCGVMTISDSPREQDSESQTLDKVYQMKSKPRGYCLIINNHNFAKAREKVPKLHSIRDRNGTHLDAGALTTTFEELHFEIKPHHDCTVEQIYEILKIYQLMDHSNMDCFICCILSHGDKGIIYGTDGQEAPIYELTSQFTGLKCPSLAGKPKVFFIQACQGDNYQKGIPVETDSEEQPYLEMDLSSPQTRYIPDEADFLLGMATVNNCVSYRNPAEGTWYIQSLCQSLRERCPRGDDILTILTEVNYEVSNKDDKKNMGKQMPQPTFTLRKKLVFPSD
cleavage of 35S-labelled p72 mutant in vitro, SDS-PAGE and phospho-imaging (p72 (D600E)): the same protein profile of p72 D600E mutant is observed in the presence or absence of caspase-8
cleavage of 35S-labelled p72 in vitro, SDS-PAGE and phospho-imaging (p72): This band disappears after addition of activated caspase-8 for 1 hour and a new smaller fragment corresponding to 68 kDa appears (lane 4)
cleavage of 35S-labelled p72 mutant in vitro, SDS-PAGE and phospho-imaging (p72 (1-600)): The p72 1-600 mutant co-migrates with the 68 kDa fragment produced after cleavage of the wild type p72 and is not further cleaved by addition of caspase-8 (lanes 2 and 5)
